Laboratory results from the supplement of paper PMC5998384.

How the values were obtained:
HeLa Kyoto [1] = assay: solubility in G1/S (NP-40 vs SDS abundance) (log2 ratio); higher = more soluble; details: cell cycle stage: G1/S
HeLa Kyoto [2] = assay: solubility change mitosis vs G1/S (difference of NP-40 vs SDS log2 ratios) (log2 ratio difference); higher = more soluble in mitosis
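For solubility change mitosis vs G1/S (difference of NP-40 vs SDS log2 ratios) in this document: synchronized HeLa Kyoto cells (double thymidine block for G1/S, nocodazole release for mitosis), protein amounts in NP-40 versus SDS lysates quantified by mass spectrometry, three biological replicates.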
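For solubility in G1/S (NP-40 vs SDS abundance) in this document: HeLa Kyoto cells arrested at G1/S by double thymidine block, proteins quantified by TMT10plex mass spectrometry in mild NP-40 versus SDS extracts, three biological replicates.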

Substance	solubility in G1/S (log2) (HeLa Kyoto [1])	solubility change mitosis (log2) (HeLa Kyoto [2])
MPAGGRAGSLKDPDVAELFFKDDPEKLFSDLREIGHGSFGAVYFARDVRNSEVVAIKKMSYSGKQSNEKWQDIIKEVRFLQKLRHPNTIQYRGCYLREHTAWLVMEYCLGSASDLLEVHKKPLQEVEIAAVTHGALQGLAYLHSHNMIHRDVKAGNILLSEPGLVKLGDFGSASIMAPANSFVGTPYWMAPEVILAMDEGQYDGKVDVWSLGITCIELAERKPPLFNMNAMSALYHIAQNESPVLQSGHWSEYFRNFVDSCLQKIPQDRPTSEVLLKHRFVLRERPPTVIMDLIQRTKDAVRELDNLQYRKMKKILFQEAPNGPGAEAPEEEEEAEPYMHRAGTLTSLESSHSVPSMSISASSQSSSVNSLADASDNEEEEEEEEEEEEEEEGPEAREMAMMQEGEHTVTSHSSIIHRLPGSDNLYDDPYQPEITPSPLQPPAAPAPTSTTSSARRRAYCRNRDHFATIRTASLVSRQIQEHEQDSALREQLSGYKRMRRQHQKQLLALESRLRGEREEHSARLQRELEAQRAGFGAEAEKLARRHQAIGEKEARAAQAEERKFQQHILGQQKKELAALLEAQKRTYKLRKEQLKEELQENPSTPKREKAEWLLRQKEQLQQCQAEEEAGLLRRQRQYFELQCRQYKRKMLLARHSLDQDLLREDLNKKQTQKDLECALLLRQHEATRELELRQLQAVQRTRAELTRLQHQTELGNQLEYNKRREQELRQKHAAQVRQQPKSLKVRAGQRPPGLPLPIPGALGPPNTGTPIEQQPCSPGQEAVLDQRMLGEEEEAVGERRILGKEGATLEPKQQRILGEESGAPSPSPQKHGSLVDEEVWGLPEEIEELRVPSLVPQERSIVGQEEAGTWSLWGKEDESLLDEEFELGWVQGPALTPVPEEEEEEEEGAPIGTPRDPGDGCPSPDIPPEPPPTHLRPCPASQLPGLLSHGLLAGLSFAVGSSSGLLPLLLLLLLPLLAAQGGGGLQAALLALEVGLVGLGASYLLLCTALHLPSSLFLLLAQGTALGAVLGLSWRRGLMGVPLGLGAAWLLAWPGLALPLVAMAAGGRWVRQQGPRVRRGISRLWLRVLLRLSPMAFRALQGCGAVGDRGLFALYPKTNKDGFRSRLPVPGPRRRNPRTTQHPLALLARVWVLCKGWNWRLARASQGLASHLPPWAIHTLASWGLLRGERPTRIPRLLPRSQRQLGPPASRQPLPGTLAGRRSRTRQSRALPPWR [TAOK2]	-0.239	-0.0236
CROCC	0.091	-0.109
VPS13B	-0.247	-0.0582
MADSSGRGAGKPATGPTNSSSAKKKDKRVQGGRVIESRYLQYEKKTTQKAPAGDGSQTRGKMSEGGRKSSLLQKSKADSSGVGKGDLQSTLLEGHGTAPPDLDLSAINDKSIVKKTPQLAKTISKKPESTSFSAPRKKSPDLSEAMEMMESQTLLLTLLSVKMENNLAEFERRAEKNLLIMCKEKEKLQKKAHELKRRLLLSQRKRELADVLDAQIEMLSPFEAVATRFKEQYRTFATALDTTRHELPVRSIHLEGDGQQLLDALQHELVTTQRLLGELDVGDSEENVQVLDLLSELKDVTAKKDLELRRSFAQVLELSAEASKEAALANQEVWEETQGMAPPSRWYFNQDSACRESGGAPKNTPLSEDDNPGASSAPAQATFISPSEDFSSSSQAEVPPSLSRSGRDLS [HAUS8]	0.514	0.189
MASASARGNQDKDAHFPPPSKQSLLFCPKSKLHIHRAEISKIMRECQEESFWKRALPFSLVSMLVTQGLVYQGYLAANSRFGSLPKVALAGLLGFGLGKVSYIGVCQSKFHFFEDQLRGAGFGPQHNRHCLLTCEECKIKHGLSEKGDSQPSAS [OCIAD2]	0.0856	-0.0442
MSANNSPPSAQKSVLPTAIPAVLPAASPCSSPKTGLSARLSNGSFSAPSLTNSRGSVHTVSFLLQIGLTRESVTIEAQELSLSAVKDLVCSIVYQKFPECGFFGMYDKILLFRHDMNSENILQLITSADEIHEGDLVEVVLSALATVEDFQIRPHTLYVHSYKAPTFCDYCGEMLWGLVRQGLKCEGCGLNYHKRCAFKIPNNCSGVRKRRLSNVSLPGPGLSVPRPLQPEYVALPSEESHVHQEPSKRIPSWSGRPIWMEKMVMCRVKVPHTFAVHSYTRPTICQYCKRLLKGLFRQGMQCKDCKFNCHKRCASKVPRDCLGEVTFNGEPSSLGTDTDIPMDIDNNDINSDSSRGLDDTEEPSPPEDKMFFLDPSDLDVERDEEAVKTISPSTSNNIPLMRVVQSIKHTKRKSSTMVKEGWMVHYTSRDNLRKRHYWRLDSKCLTLFQNESGSKYYKEIPLSEILRISSPRDFTNISQGSNPHCFEIITDTMVYFVGENNGDSSHNPVLAATGVGLDVAQSWEKAIRQALMPVTPQASVCTSPGQGKDHKDLSTSISVSNCQIQENVDISTVYQIFADEVLGSGQFGIVYGGKHRKTGRDVAIKVIDKMRFPTKQESQLRNEVAILQNLHHPGIVNLECMFETPERVFVVMEKLHGDMLEMILSSEKSRLPERITKFMVTQILVALRNLHFKNIVHCDLKPENVLLASAEPFPQVKLCDFGFARIIGEKSFRRSVVGTPAYLAPEVLRSKGYNRSLDMWSVGVIIYVSLSGTFPFNEDEDINDQIQNAAFMYPPNPWREISGEAIDLINNLLQVKMRKRYSVDKSLSHPWLQDYQTWLDLREFETRIGERYITHESDDARWEIHAYTHNLVYPKHFIMAPNPDDMEEDP [PRKD3]	-0.25	-0.119
MSFKREGDDWSQLNVLKKRRVGDLLASYIPEDEALMLRDGRFACAICPHRPVLDTLAMLTAHRAGKKHLSSLQLFYGKKQPGKERKQNPKHQNELRREETKAEAPLLTQTRLITQSALHRAPHYNSCCRRKYRPEAPGPSVSLSPMPPSEVKLQSGKISREPEPAAGPQAEESATVSAPAPMSPTRRRALDHYLTLRSSGWIPDGRGRWVKDENVEFDSDEEEPPDLPLD [SCNM1]	0.0519	0.462
MAAFGRQVLDWHRLIPLTWACMARQTPHLGEQRRTTASLLRKLTTASNGGVIEELSCVRSNNYVQEPECRRNLVQCLLEKQGTPVVQGSLELERVMSSLLDMGFSNAHINELLSVRRGASLQQLLDIISEFILLGLNPEPVCVVLKKSPQLLKLPIMQMRKRSSYLQKLGLGEGKLKRVLYCCPEIFTMRQQDINDTVRLLKEKCLFTVQQVTKILHSCPSVLREDLGQLEYKFQYAYFRMGIKHPDIVKSEYLQYSLTKIKQRHIYLERLGRYQTPDKKGQTQIPNPLLKDILRVSEAEFLARTACTSVEEFQVFKKLLAREEEESESSTSDDKRASLDEDEDDDDEEDNDEDDNDEDDDDEDDDEAEDNDEDEDDDEEE [MTERF4]	0.434	-0.0189
MAAAEEGCSVGAEADRELEELLESALDDFDKAKPSPAPPSTTTAPDASGPQKRSPGDTAKDALFASQEKFFQELFDSELASQATAEFEKAMKELAEEEPHLVEQFQKLSEAAGRVGSDMTSQQEFTSCLKETLSGLAKNATDLQNSSMSEEELTKAMEGLGMDEGDGEGNILPIMQSIMQNLLSKDVLYPSLKEITEKYPEWLQSHRESLPPEQFEKYQEQHSVMCKICEQFEAETPTDSETTQKARFEMVLDLMQQLQDLGHPPKELAGEMPPGLNFDLDALNLSGPPGASGEQCLIM [PEX19]	-0.302	0.402
MKFVYKEEHPFEKRRSEGEKIRKKYPDRVPVIVEKAPKARIGDLDKKKYLVPSDLTVGQFYFLIRKRIHLRAEDALFFFVNNVIPPTSATMGQLYQEHHEEDFFLYIAYSDESVYGL [GABARAP]	0.16	-0.0822
MSSESKEQHNVSPRDSAEGNDSYPSGIHLELQRESSTDFKQFETNDQCRPYHRILIERQEKSDTNFKEFVIKKLQKNCQCSPAKAKNMILGFLPVLQWLPKYDLKKNILGDVMSGLIVGILLVPQSIAYSLLAGQEPVYGLYTSFFASIIYFLLGTSRHISVGIFGVLCLMIGETVDRELQKAGYDNAHSAPSLGMVSNGSTLLNHTSDRICDKSCYAIMVGSTVTFIAGVYQVAMGFFQVGFVSVYLSDALLSGFVTGASFTILTSQAKYLLGLNLPRTNGVGSLITTWIHVFRNIHKTNLCDLITSLLCLLVLLPTKELNEHFKSKLKAPIPIELVVVVAATLASHFGKLHENYNSSIAGHIPTGFMPPKVPEWNLIPSVAVDAIAISIIGFAITVSLSEMFAKKHGYTVKANQEMYAIGFCNIIPSFFHCFTTSAALAKTLVKESTGCHTQLSGVVTALVLLLVLLVIAPLFYSLQKSVLGVITIVNLRGALRKFRDLPKMWSISRMDTVIWFVTMLSSALLSTEIGLLVGVCFSIFCVILRTQKPKSSLLGLVEESEVFESVSAYKNLQIKPGIKIFRFVAPLYYINKECFKSALYKQTVNPILIKVAWKKAAKRKIKEKVVTLGGIQDEMSVQLSHDPLELHTIVIDCSAIQFLDTAGIHTLKEVRRDYEAIGIQVLLAQCNPTVRDSLTNGEYCKKEEENLLFYSVYEAMAFAEVSKNQKGVCVPNGLSLSSD [SLC26A2]	-0.0844	-0.0606
MADVEDGEETCALASHSGSSGSKSGGDKMFSLKKWNAVAMWSWDVECDTCAICRVQVMDACLRCQAENKQEDCVVVWGECNHSFHNCCMSLWVKQNNRCPLCQQDWVVQRIGK [RNF7]	-0.165	-0.169
MFHSPRRLCSALLQRDAPGLRRLPAPGLRRPLSPPAAVPRPASPRLLAAASAASGAARSCSRTVCSMGTGTSRLYSALAKTLNSSAASQHPEYLVSPDPEHLEPIDPKELLEECRAVLHTRPPRFQRDFVDLRTDCPSTHPPIRVMQWNILAQALGEGKDNFVQCPVEALKWEERKCLILEEILAYQPDILCLQEVDHYFDTFQPLLSRLGYQGTFFPKPWSPCLDVEHNNGPDGCALFFLQNRFKLVNSANIRLTAMTLKTNQVAIAQTLECKESGRQFCIAVTHLKARTGWERFRSAQGCDLLQNLQNITQGAKIPLIVCGDFNAEPTEEVYKHFASSSLNLNSAYKLLSADGQSEPPYTTWKIRTSGECRHTLDYIWYSKHALNVRSALDLLTEEQIGPNRLPSFNYPSDHLSLVCDFSFTEESDGLS [NOCT]	0.0632	-0.0975
MAAEEADVDIEGDVVAAAGAQPGSGENTASVLQKDHYLDSSWRTENGLIPWTLDNTISEENRAVIEKMLLEEEYYLSKKSQPEKVWLDQKEDDKKYMKSLQKTAKIMVHSPTKPASYSVKWTIEEKELFEQGLAKFGRRWTKISKLIGSRTVLQVKSYARQYFKNKVKCGLDKETPNQKTGHNLQVKNEDKGTKAWTPSCLRGRADPNLNAVKIEKLSDDEEVDITDEVDELSSQTPQKNSSSDLLLDFPNSKMHETNQGEFITSDSQEALFSKSSRGCLQNEKQDETLSSSEITLWTEKQSNGDKKSIELNDQKFNELIKNCNKHDGRGIIVDARQLPSPEPCEIQKNLNDNEMLFHSCQMVEESHEEEELKPPEQEIEIDRNIIQEEEKQAIPEFFEGRQAKTPERYLKIRNYILDQWEICKPKYLNKTSVRPGLKNCGDVNCIGRIHTYLELIGAINFGCEQAVYNRPQTVDKVRIRDRKDAVEAYQLAQRLQSMRTRRRRVRDPWGNWCDAKDLEGQTFEHLSAEELAKRREEEKGRPVKSLKVPRPTKSSFDPFQLIPCNFFSEEKQEPFQVKVASEALLIMDLHAHVSMAEVIGLLGGRYSEVDKVVEVCAAEPCNSLSTGLQCEMDPVSQTQASETLAVRGFSVIGWYHSHPAFDPNPSLRDIDTQAKYQSYFSRGGAKFIGMIVSPYNRNNPLPYSQITCLVISEEISPDGSYRLPYKFEVQQMLEEPQWGLVFEKTRWIIEKYRLSHSSVPMDKIFRRDSDLTCLQKLLECMRKTLSKVTNCFMAEEFLTEIENLFLSNYKSNQENGVTEENCTKELLM [MYSM1]	-0.108	-0.109
